The values that follow come from article PMC6044281, “Cooperative Domain Formation by Homologous Motifs in HOIL-1L and SHARPIN Plays A Crucial Role in LUBAC Stabilization” (Cell reports, 2018).

B1: MBP-mSHARPIN UBL_(163–301) [mouse] / mHOIL-1L_(1–189)-strep [mouse] (parent complex)
chain 1: SSGNFKKEELATRLSQAIAGGDEKAAAQVAAVLAQHHVALNVQLMEAWFPPGPIRLQVTVEDATSVLSSSSSAHVSLKIHPHCSIAALQDQVFSEFGFPPAVQRWVIGRCLCMPERSLASYGVSQDGDPAFLYLLSAPR
chain 2: MDEKTKKAEEMALSLARAVAGGDEQAAIKYATWLAEQRVPLRVQVKPEVSPTQDIRLCVSVEDAYMHTVTIWLTVRPDMTVASLKDMVFLDYGFPPSLQQWVVGQRLARDQETLHSHGIRRNGDGAYLYLLSARNTSLNPQELQRQRQLRMLEDLGFKDLTLQSRGPLEPVLPKPRTNQEPGQPDAAPE
B2: mSHARPIN_(163–301) [mouse] / GST-mHOIP_(466–630) [mouse] (parent complex)
chain 1: B1 chain 1
chain 2: SCGDPEKQRQDKMRKEGLQLVSMIQEGETAGASPEEVFSALQYSGTEVPLQWLRSELSYVLEMVAELAGQQDPELGAFSCQEARKAWLDRHGNLDEAVEECVRARRRKVHELQSLGFGPKEGSLQALFQHGGDVARALTELQRQRLEPFHQRLWDRDPEPTPCWD
B3: mHOIL-1L_(1–140) [mouse] / GST-mHOIP_(466–630) [mouse] (parent complex)
chain 1: MDEKTKKAEEMALSLARAVAGGDEQAAIKYATWLAEQRVPLRVQVKPEVSPTQDIRLCVSVEDAYMHTVTIWLTVRPDMTVASLKDMVFLDYGFPPSLQQWVVGQRLARDQETLHSHGIRRNGDGAYLYLLSARNTSLNP
chain 2: B2 chain 2
B4: mHOIL-1L_(1–140) and mSHARPIN_(163–301) applied together [mouse] / GST-mHOIP_(466–630) [mouse] (parent complex)
chain 1: B3 chain 1
chain 2: B1 chain 1
chain 3: B2 chain 2

Variants of B1 are the subject of one experiment. As to the kind of experiment: SPR; analyte 40 mM as printed in the legend; response read at end of injection (about 175 s); mHOIL-1L1-189-strep immobilized with anti-strep antibody; parent: 45; read off a plot. A general note: SPR reads the build-up and loss of mass on a sensor chip optically.
Take chain 1 SSGNFKKEELATRASQAAAGGDEKAAAQVAAVLAQHHVALNVQLMEAWFPPGPIRLQVTVEDATSVLSSSSSAHVSLKIHPHCSIAALQDQVFSEFGFPPAVQRWVIGRCLCMPERSLASYGVSQDGDPAFLYLLSAPR [chain 1 L14A, chain 1 I18A]: the response was about 3 RU.

Variants of B2 are the subject of another experiment. Nature of the experiment: SPR; response read at end of injection (about 180 s); GST-mHOIP D-UBA UBA1mut immobilized with anti-GST antibody; read off a plot.
As for chain 2 SCGDPEKQAQDKMRKEGAQLASMIQEGETAGASPEEVFSALQYSGTEVPLQWLRSELSYVLEMVAELAGQQDPELGAFSCQEARKAWLDRHGNLDEAVEECVRARRRKVHELQSLGFGPKEGSLQALFQHGGDVARALTELQRQRLEPFHQRLWDRDPEPTPCWD [chain 2 R9A, chain 2 L18A, chain 2 V21A], the response is about 0 RU.

The variants in another experiment derive from B2. Nature of the experiment: SPR; response read at end of injection (about 180 s); GST-mHOIP D-UBA UBA2mut immobilized with anti-GST antibody; read off a plot.
For the variant chain 2 SCGDPEKQRQDKMRKEGLQLVSMIQEGETAGASPEEVFSALQYSGTEVPLQWLRSELSYVLEMVAELAGQQDPELGAFSCQEARKAWLDRHGNLDEAVEECVRARRRKVHELQSLGFGPKEGSLQALFQHGGDVARALTELARQRAEPAHQRLWDRDPEPTPCWD [chain 2 Q142A, chain 2 L146A, chain 2 F149A], the response was about 5 RU.

Variants of B3 are the subject of a further experiment. Described as above.
For chain 2 SCGDPEKQRQDKMRKEGLQLVSMIQEGETAGASPEEVFSALQYSGTEVPLQWLRSELSYVLEMVAELAGQQDPELGAFSCQEARKAWLDRHGNLDEAVEECVRARRRKVHELQSLGFGPKEGSLQALFQHGGDVARALTELARQRAEPAHQRLWDRDPEPTPCWD [chain 2 Q142A, chain 2 L146A, chain 2 F149A], the response is about -3 RU.

Variants of B3 are the subject of a further experiment. Nature of the experiment: SPR; response read at end of injection (about 180 s); GST-mHOIP D-UBA UBA1mut immobilized with anti-GST antibody; read off a plot.
Turning to chain 2 SCGDPEKQAQDKMRKEGAQLASMIQEGETAGASPEEVFSALQYSGTEVPLQWLRSELSYVLEMVAELAGQQDPELGAFSCQEARKAWLDRHGNLDEAVEECVRARRRKVHELQSLGFGPKEGSLQALFQHGGDVARALTELQRQRLEPFHQRLWDRDPEPTPCWD [chain 2 R9A, chain 2 L18A, chain 2 V21A], the response was about 60 RU.

Variants of B4 are the subject of a further experiment. Described as above.
On to chain 3 SCGDPEKQAQDKMRKEGAQLASMIQEGETAGASPEEVFSALQYSGTEVPLQWLRSELSYVLEMVAELAGQQDPELGAFSCQEARKAWLDRHGNLDEAVEECVRARRRKVHELQSLGFGPKEGSLQALFQHGGDVARALTELQRQRLEPFHQRLWDRDPEPTPCWD [chain 3 R9A, chain 3 L18A, chain 3 V21A], for which the response was about 170 RU.

Variants of B4 are the subject of the next experiment. Nature of the experiment: SPR; response read at end of injection (about 180 s); GST-mHOIP D-UBA UBA2mut immobilized with anti-GST antibody; read off a plot.
With chain 3 SCGDPEKQRQDKMRKEGLQLVSMIQEGETAGASPEEVFSALQYSGTEVPLQWLRSELSYVLEMVAELAGQQDPELGAFSCQEARKAWLDRHGNLDEAVEECVRARRRKVHELQSLGFGPKEGSLQALFQHGGDVARALTELARQRAEPAHQRLWDRDPEPTPCWD [chain 3 Q142A, chain 3 L146A, chain 3 F149A], the response is about 120 RU.
